The values below are quoted from earlier work in article PMC7337045.

A word on the Kd: it is a measure of binding affinity in units of concentration.

For this series, the target named is IRS-1 phosphopeptide (UniProt P35570).
IRS-1 phosphopeptide, sequence (P35570 whole entry, looked up, tested part not stated): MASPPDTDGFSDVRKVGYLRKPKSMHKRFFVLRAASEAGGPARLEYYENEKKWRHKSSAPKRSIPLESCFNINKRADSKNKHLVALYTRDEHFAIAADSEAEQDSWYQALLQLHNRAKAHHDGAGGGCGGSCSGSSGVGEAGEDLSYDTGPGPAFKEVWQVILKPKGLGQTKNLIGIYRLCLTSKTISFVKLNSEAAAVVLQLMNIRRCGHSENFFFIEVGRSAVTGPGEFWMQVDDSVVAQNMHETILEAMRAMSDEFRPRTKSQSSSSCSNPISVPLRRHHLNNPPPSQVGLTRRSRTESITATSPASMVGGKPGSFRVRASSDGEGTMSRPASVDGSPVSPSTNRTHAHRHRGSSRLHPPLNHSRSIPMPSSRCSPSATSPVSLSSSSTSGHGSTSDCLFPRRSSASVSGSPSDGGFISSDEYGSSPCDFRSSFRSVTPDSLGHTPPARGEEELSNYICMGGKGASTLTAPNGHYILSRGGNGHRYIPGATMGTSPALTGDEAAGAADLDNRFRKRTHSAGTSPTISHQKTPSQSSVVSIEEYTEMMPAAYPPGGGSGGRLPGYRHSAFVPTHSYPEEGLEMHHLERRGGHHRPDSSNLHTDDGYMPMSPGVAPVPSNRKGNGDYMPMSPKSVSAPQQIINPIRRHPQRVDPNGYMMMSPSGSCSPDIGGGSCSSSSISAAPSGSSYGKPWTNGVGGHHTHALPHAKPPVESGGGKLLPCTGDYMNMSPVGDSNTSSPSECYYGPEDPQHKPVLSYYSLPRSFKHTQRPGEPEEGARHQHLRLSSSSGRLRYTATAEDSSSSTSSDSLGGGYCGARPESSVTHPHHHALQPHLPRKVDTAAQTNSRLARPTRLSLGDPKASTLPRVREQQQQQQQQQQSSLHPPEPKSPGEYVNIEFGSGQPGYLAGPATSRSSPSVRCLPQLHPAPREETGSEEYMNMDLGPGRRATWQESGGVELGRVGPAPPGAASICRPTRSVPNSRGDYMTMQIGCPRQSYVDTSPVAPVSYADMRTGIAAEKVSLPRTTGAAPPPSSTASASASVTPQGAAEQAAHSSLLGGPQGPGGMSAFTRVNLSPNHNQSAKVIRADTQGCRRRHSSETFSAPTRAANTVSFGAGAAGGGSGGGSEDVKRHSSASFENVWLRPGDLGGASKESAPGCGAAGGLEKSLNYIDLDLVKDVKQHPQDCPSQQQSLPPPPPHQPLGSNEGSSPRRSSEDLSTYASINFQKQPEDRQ

As to SHP2 N-SH2 (from UniProt Q06124), the equilibrium dissociation constant (Kd) is 0.014 µM.
